In patent US20150158934A1:

Columns and labels:
[1] = biological target: gp120Yu-2 109-428 (HIV-1); test: competition ELISA on coated gp120Yu-2 109-428; periplasmic VHH first, then competitor sCD4 detected
[2] = biological target: gp140UG37 (subtype A), gp140 envelope glycoprotein from the HIV-1 group M A-clade isolate 92UG037 (HIV-1); test: binding of purified VHH to gp140 92UG (method not given)
[3] = biological target: gp140CN54 (subtype B'/C), gp140 envelope glycoprotein from the HIV-1 group M CRF07-B/C-clade isolate 97CN54 (HIV-1); test: binding of purified VHH to gp140 CN54 (method not given)
[4] = biological target: gp120Yu-2 109-428 (HIV-1); test: competition ELISA on coated gp120Yu-2 109-428; periplasmic VHH first, then competitor b12 detected
[5] = biological target: gp140UG37 (subtype A), gp140 envelope glycoprotein from the HIV-1 group M A-clade isolate 92UG037 (HIV-1); test: binding of VHH to gp140 92UG (method not given)
[6] = biological target: gp140CN54 (subtype B'/C), gp140 envelope glycoprotein from the HIV-1 group M CRF07-B/C-clade isolate 97CN54 (HIV-1); test: binding of VHH to gp140 CN54 (method not given)
[7] = biological target: gp120Yu-2 109-428 (HIV-1); test: competition ELISA on coated gp120Yu-2 109-428; periplasmic VHH first, then competitor 17b detected

Row | Binder | K50 (50% binding concentration; column head reads KD) [2] [µg/mL] | K50 (50% binding concentration; column head reads KD) [3] [µg/mL] | further results
1 | L93E3 (VHH) VHH: EVQLVESGGGLVQPGGSLRLSCAASQFTLESYAIGWFRQAPGKDSEGVACISSSTYYADSVKGRFTISRDNAKNTVYLQMESLKPEDTAVYHCATSGAGSYCTLRAFGSWGQGTQVTVSS | – | – | signal as percent of the signal of the control [1]: < 30%
2 | L8Cj3 Mutant 2 (VHH) VHH: EVQLVESGGGLVQAGGFLRLSCELRGSIFSQYAMAWFRQAPGKEREFVAGMGAVPHYGEFVKGRFTISRDNAKSTVYLQMSSLKPEDTAIYFCARSKSTYISYNSNGYDYWGRGTQVTVSS | 0.04 | 0.18 | –
3 | L8Cj3 Mutant 4 (VHH) VHH: EVQLVESGGGLVQAGGFLRLSCELRGSIFNQYAMAWFRQAPGKEREFVAGMGAVPHYADSVKGRFTISRDNAKSTVYLQMSSLKPEDTAIYFCARSKSTYISYNSNGYDYWGRGTQVTVSS | 0.025 | 1.84 | –
4 | L8Cj3 Mutant 6 (VHH) VHH: EVQLVESGGGLVQAGGFLRLSCELRGSIFNQYAMAWFRQAPGKEREFVAGMGAVPHYGEFVKGRFTISRDNAKSTVYLQMSSLKPEDTAIYYCARSKSTYISYNSNGYDYWGRGTQVTVSS | 0.024 | 0.25 | –
5 | L8Cj3 Mutant 11 (VHH) VHH: EVQLVESGGGLVQAGGFLRLSCELRGSIFNQYAMAWFRQAPGKEREFVAGMGAVPHYGEFVKGRFTISRDNAKSTVYLQMSSLKPEDTAIYFCARSKSTYISYNSNGYDYWGQGTQVTVSS | 0.019 | 9.26 | –
6 | L8Cj3 Mutant 8 (VHH) VHH: EVQLVESGGGLVQAGGFLRLSCELRGSIFNQYAMAWFRQAPGKEREFVAGMGAVPHYGEFVKGRFTISRDNAKSTVYLQMSSLKPEDTAIYFCARSKNTYISYNSNGYDYWGRGTQVTVSS | 0.02 | 0.36 | –
7 | L8Cj3 Mutant 7 (VHH) VHH: EVQLVESGGGLVQAGGFLRLSCELRGSIFNQYAMAWFRQAPGKEREFVAGMGAVPHYGEFVKGRFTISRDNAKSTVYLQMSSLKPEDTAIYFCAASKSTYISYNSNGYDYWGRGTQVTVSS | 0.95 | > 100 | –
8 | L8Cj3 Mutant 1 (VHH) VHH: EVQLVESGGGLVQAGGFLRLSCAASGSIFNQYAMAWFRQAPGKEREFVAGMGAVPHYGEFVKGRFTISRDNAKSTVYLQMSSLKPEDTAIYFCARSKSTYISYNSNGYDYWGRGTQVTVSS | 0.058 | 67.8 | –
9 | L8Cj3 Mutant 5 (VHH) VHH: EVQLVESGGGLVQAGGFLRLSCELRGSIFNQYAMAWFRQAPGKEREFVAGMGAVPHYGEFVKGRFTISRDNAKSTVYLQMSSLKPEDTAVYFCARSKSTYISYNSNGYDYWGRGTQVTVSS | 0.028 | 1.07 | –
10 | L8Cj3 Mutant 13 (VHH) VHH: EVQLVESGGGLVQAGGFLRLSCELRGRTFNQYAMAWFRQAPGKEREFVAGMGAVPHYGEFVKGRFTISRDNAKSTVYLQMSSLKPEDTAIYFCARSKSTYISYNSNGYDYWGRGTQVTVSS | 0.027 | > 100 | –
11 | L8i5 (VHH) VHH: EVQLVESGGGLVQAGGFLRLSCEPRGSIFNQYAMAWFRQAPGKEREFVAGMGAVAHYGEFVKGRFTISRDNAKNTAYLQMNSLKPEDTAIYFCARSKSTYISYNSNGYDYWGRGTQVTVSS | 0.048 | 8.54 | –
12 | L8Cj3 Mutant 10 (VHH) VHH: EVQLVESGGGLVQAGGFLRLSCELRGSIFNQYAMAWFRQAPGKEREFVAGMGAVPHYGEFVKGRFTISRDNAKSTVYLQMSSLKPEDTAIYFCARSKSTYISYNSNEYDYWGRGTQVTVSS | 0.086 | 12.1 | –
13 | L8Cj3 Mutant 12 (VHH) VHH: EVQLVESGGGLVQAGGFLRLSCIYRGSIFNQYAMAWFRQAPGKEREFVAGMGAVPHYGEFVKGRFTISRDNAKSTVYLQMSSLKPEDTAIYFCARSKSTYISYNSNGYDYWGRGTQVTVSS | 0.042 | > 100 | –
14 | L8Cj3 Mutant 9 (VHH) VHH: EVQLVESGGGLVQAGGFLRLSCELRGSIFNQYAMAWFRQAPGKEREFVAGMGAVPHYGEFVKGRFTISRDNAKSTVYLQMSSLKPEDTAIYFCARSKSTYISYASNGYDYWGRGTQVTVSS | 0.022 | 0.14 | –
15 | L81H9 (VHH) VHH: EVQLVESGGGLVQAGGSLRLSCVCSGFSSDEYAIGWFRQAPGKEREGVSYISREDGSRHYADSVKGRFTISTDYARNTVYLQMDSLKPEDTGVYYCAAALLGDYVLWLPEYPYNYWGQGTQVTVSS | – | – | signal as percent of the signal of the control [4]: < 30%
16 | J3_CDR2_fill_1 (site directed mutagenesis) (VHH) VHH: EVQLVESGGGLVQAGGFLRLSCELRGSIFNQYAMAWFRQAPGKEREFVAGMSGAVPHYGEFVKGRFTISRDNAKSTVYLQMSSLKPEDTAIYFCARSKSTYISYNSNGYDYWGRGTQVTVSS | – | – | K50 (50% binding concentration) [5]: > 10 µg/mL; K50 (50% binding concentration) [6]: > 100 µg/mL
17 | L1719E1 (VHH) VHH: EVQLVESGGGLVRHGDSLRLSCLVSGRTTSVYATGWFRQAPGKEREFVAAISWSGGYTNYADSVKGRFTISRDNAKNTVFLQMNSLKPEDTAVYYCAADRNPYRGSNNANAYDYWGQGTQVTVSS | – | – | signal as percent of the signal of the control [7]: < 30%
18 | 3E3mod-long-CDR2 (VHH) VHH: QVQLQESGGGLVQAGGSLRLSCAASQFTLESYAIGWFRQAPGKDSEGVACISSSDGSTYYADSVKGRFTISRDNAKNTVYLQMNSLKPEDTAVYHCATSGAGSYCTLRAFGSWGQGTQVTVSS | – | – | K50 (50% binding concentration) [5]: > 10 µg/mL
19 | J3_CDR2_fill_2 (site directed mutagenesis) (VHH) VHH: EVQLVESGGGLVQAGGFLRLSCELRGSIFNQYAMAWFRQAPGKEREFVAGMSWGAVPHYGEFVKGRFTISRDNAKSTVYLQMSSLKPEDTAIYFCARSKSTYISYNSNGYDYWGRGTQVTVSS | – | – | K50 (50% binding concentration) [5]: > 10 µg/mL; K50 (50% binding concentration) [6]: > 100 µg/mL
